Measured values: patent publication US20260167731A1

Experiments:
[1] = molecular target: human CCR8 (human) (UniProt P51685); assay: cell-based or functional assay
[2] = molecular target: human CCR8 (human) (UniProt P51685); assay: flow cytometry, hCCR8 transfected CHOK1 cells

Row | EC80 of hCCL1, hCCR8 Gi2 BRET, HEK-293 in suspension (protocol #1) [1] [nM] | EC80 of hCCL1, hCCR8 Gi2 BRET, adherent HEK-293 (protocol #4) [1] [nM] | % positive cells [2] [%] | MFI fold change to isotype ctrl [2] [fold] | Substance
1 | 6 | 0.6 | – | – | hCCL1 (from UniProt P22362 24-96) (ligand)
2 | – | – | 86.5 | 19.8 | murine anti-human CCR8 monoclonal antibody L263G8
